From patent US20050191293A1 (Bristol-Myers Squibb, published 2005) come the findings set out here.

The term EC50 denotes the concentration that produces a half-maximal response. Broadly, the Kd is the concentration at which binding is half-saturated. For orientation: koff means the rate constant with which the complex falls apart. The term kon denotes a measure of how fast the partners come together. Usually Ki stands for a dissociation constant, usually derived from enzyme kinetics or from competition with a known ligand.

To fix the notation:
T1: rhesus monkey IP-10 (rhesus monkey, UniProt Q8MIZ1 22-98)
T1 construct: Made by recombinant expression and purified by standard methods; also called Rhesus IP-10; rrmIP-10
T1 sequence: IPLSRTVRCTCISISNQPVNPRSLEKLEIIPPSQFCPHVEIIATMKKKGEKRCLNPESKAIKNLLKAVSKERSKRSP

T2: mouse IP-10 (mouse, UniProt P17515 22-98)
T2 construct: Bought (PeproTech 250-16)
T2 sequence: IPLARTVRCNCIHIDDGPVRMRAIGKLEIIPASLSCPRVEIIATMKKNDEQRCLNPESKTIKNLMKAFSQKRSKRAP

T3: human MIG (monokine induced by gamma interferon) (human, UniProt Q07325 23-125)
T3 construct: Bought (PeproTech 300-26; R&D Systems for the migration assay)
T3 sequence: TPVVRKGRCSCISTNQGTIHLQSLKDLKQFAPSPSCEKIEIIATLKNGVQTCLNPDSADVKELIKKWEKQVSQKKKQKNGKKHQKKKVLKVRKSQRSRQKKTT

T4: human ITAC (interferon-inducible T cell alpha chemoattractant) (human, UniProt O14625 22-94)
T4 sequence: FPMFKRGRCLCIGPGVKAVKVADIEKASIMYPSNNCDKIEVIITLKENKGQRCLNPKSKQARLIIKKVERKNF

B1: 8F6 human monoclonal antibody (antibody, V domains shown)
VH: QVQLVDSGGGVVQPGRSLRLSCAASGFTFNTYGMHWVRQAPGKGLEWVAVISYDGIIKHYADSVKGRFTITRDNSKNMVHLQMNSLRAEDTAVYYCARDSSSWYVYFDYWGQGTLVTVSS
VL: EIVLTQSPATLSLSPGERATLSCRASQSVSSYVAWYQQKPGQAPRLLIYDASNRATGIPARFSGSGSGTDFTLTISSLEPEDFAIYYCQQRSNSPPWTFGQGTKVEIK
notes: Human IgG with kappa light chain from a hybridoma of transgenic mice
B2: 10A12 human monoclonal antibody (antibody, V domains shown)
VH: QVQLVESGGGVVQPGRSLRLSCAASGFTFSNCGMHWVRQAPGKGLEWVALIGFDGINEYYADSVKGRFTISRDNSKNTLYLQMNSLRAEDTAVYYCARDWPEGYYNGMDVWGQGTTVTVSS
VL: not shown
notes: as for B1
B3: 10A12S (10A12 with cysteine 32 of VH CDR1 mutated to serine) (antibody, V domains shown)
VH: B2 VH with C32S
VL: not shown
B4: 1E1 human monoclonal antibody (antibody, V domains shown)
VH: QEQLVESGGNVVQPGRSLRLSCAASGFTFSTYGMHWVRQAPGKGLEWVAVIWYDGSDKYYADSVKDRFTVSKDNSKNTLYLQMNSLRAEDTAVYYCARNIAVADVAFDLWGQGTMVTVSS
VL: not shown
notes: as for B1
B5: 7C10 human monoclonal antibody (antibody, V domains shown)
VH: QVQLVESGGGVVQPGRSLRLSCAASGFTFSNSGMHWVRQAPGKGLEWVAVIDYDGIIQYYADSVKGRFTISRDNSKNTLYLQINSLRAEDTAVYYCATERGTHYYGSGSFDYWGQGTLVTVSS
VL: DIQMTQSPSSLSASVGDRVTITCRASQGISSWLAWYQQKPEKAPKSLIYAASSLQSGVPSRFSGSGSGTDFTLTISSLQPEDFATYYCQQYNSYPPTFGGGTKVEIK
notes: as for B1

Residue numbers refer to the chain shown, from its start.

One experiment concerns the target T1, rhesus monkey IP-10. The experiment is described as follows: ELISA, plate coated with 1 ug/ml antigen. On the procedure: (§1) The plates were washed with PBS/Tween and then incubated with a goat-anti-human IgG Fc polyclonal antibody conjugated with horseradish peroxidase (HRP) for 1 hour at room temperature. After washing, the plates were developed with ABTS substrate (Sigma, A-1888, 0.22 mg/ml) and analyzed by spectrophotometer at OD 415-495.
A general note: ELISA stands for enzyme-linked immunosorbent assay.
B1 registered an EC50 of 0.031 µg/mL.
B2 registered an EC50 of 0.08 µg/mL.
The same measure, in the same setting: then B3, with 0.0156 µg/mL.

Another experiment concerns the target T2, mouse IP-10. The experiment is described as follows: ELISA, plate coated with 1 ug/ml antigen. The procedure: as §1
As for B1, the binding result was “no binding”.
The same measure, in the same setting: for B2 the value was “no binding”; for B3, “no binding”.

The next experiment addresses T3, human MIG (monokine induced by gamma …). The experiment in a line: ELISA, plate coated with 1 ug/ml antigen. On the procedure: as §1
As to B1, the binding result is reported as “no binding”.
B2 had a half-maximal effective concentration (EC50) of 0.18 µg/mL.
Take B3: the EC50 is 0.38 µg/mL.

A further experiment deals with T5, human IP-10 (interferon gamma inducible protein 10) (human, UniProt P02778 22-98).
T5 construct: Native IP-10 from THP-1 supernatant and from MS patient CSF in the migration assays is also put under this molecule; also called CXCL10; rhIP-10
T5 sequence (P02778 other isoform, or with tags, fused parts or gaps limits assumed): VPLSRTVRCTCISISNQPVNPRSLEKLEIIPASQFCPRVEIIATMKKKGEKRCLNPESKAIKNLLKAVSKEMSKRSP
The experiment in a line: ELISA, plate coated with 1 ug/ml antigen. On the procedure: as §1
B1 came in with an EC50 of 0.09 µg/mL.
The molecule B2 had an EC50 of 0.04 µg/mL.
On the same count and under the same terms, for B3 the value was 0.0049 µg/mL.

In the next experiment the target is T5, human IP-10 (interferon gamma inducible …). The experiment in a line: cell-based or functional assay.
In the case of B4, the “IC50 (nM) for HPBL: inhibition of IP-10-induced calcium flux in anti-CD3 activated human PBLs that express CXCR3” value was found to be 3.64 nM.
On to B1, for which the “IC50 (nM) for 300.19 Cells: inhibition of IP-10-induced calcium flux in 300.19 cells transfected to express CXCR3” value came to 0.3 nM and the “IC50 (nM) for HPBL: inhibition of IP-10-induced calcium flux in anti-CD3 activated human PBLs that express CXCR3” value was found to be 6.27 nM.
Consider B2, for which the “IC50 (nM) for 300.19 Cells: inhibition of IP-10-induced calcium flux in 300.19 cells transfected to express CXCR3” value was determined as 0.18 nM and the “IC50 (nM) for HPBL: inhibition of IP-10-induced calcium flux in anti-CD3 activated human PBLs that express CXCR3” value came to 1.25 nM.
On the same counts, the results for B3 are 0.08 nM and 2.31 nM.
On the same counts, the results for B5 are 0.77 nM and 8.15 nM.

The next experiment concerns the target T1, rhesus monkey IP-10. The experiment in a line: SPR (Biacore), antigen on CM5 chip, antibody 133 nM, 25 C. On the procedure: (§2) The flow was then stopped and dissociation was monitored for 5 minutes. The association and dissociation curves were fit to a Langmuir binding model using BIAevaluation software (Biacore AB).
(In general: SPR reads the build-up and loss of mass on a sensor chip optically.)
B1 had an equilibrium dissociation constant (Kd) of 810 pM.
Still for that read-out and setting: for B2 the value was 710 pM; for B3, 1210 pM; for B5, 4400 pM.

In another experiment the target is T2, mouse IP-10. Described as above. The procedure:
as §2
Turning to B5, binding was characterised by a dissociation constant (Kd) of 464000 pM.

The next experiment concerns the target T3, human MIG (monokine induced by gamma …). The description is as above. The procedure:
as §2
On to B2, for which the Kd was found to be 161000 pM.
B3 displayed a Kd of 722000 pM.

A further experiment concerns the target T1, rhesus monkey IP-10. The experiment is described as follows: cell-based or functional assay.
In the case of B1, the “rrmIP-10 IC50: inhibition of migration of CXCR3-expressing 300.19 cells induced by 100 ng/ml recombinant rhesus macaque IP-10” value was determined as 0.1 µg/mL.
Same read-out and setting: then B3, with 15.1 µg/mL.

Another experiment deals with T5, human IP-10 (interferon gamma inducible …). The experiment in a line: cell-based or functional assay. This is another data set of the same source.
On to B1, for which the “THP-1 IP-10 IC50: inhibition of migration of CXCR3-expressing 300.19 cells induced by native IP-10 in THP-1 supernatant, MIG blocked by anti-MIG” value worked out at 0.173 µg/mL and the “rhIP-10 IC50: inhibition of migration of CXCR3-expressing 300.19 cells induced by 100 ng/ml recombinant human IP-10” value was found to be 0.355 µg/mL.
For the molecule B3, the “THP-1 IP-10 IC50: inhibition of migration of CXCR3-expressing 300.19 cells induced by native IP-10 in THP-1 supernatant, MIG blocked by anti-MIG” value was 0.211 µg/mL and the “rhIP-10 IC50: inhibition of migration of CXCR3-expressing 300.19 cells induced by 100 ng/ml recombinant human IP-10” value is 0.115 µg/mL.

The target is the same in the next experiment. The experiment is described as follows: SPR (Biacore), human IP-10 on CM5 chip, 37 C. The procedure:
(§3) Binding was measured by flowing the antibody in HBS EP buffer (provided by Biacore AB) at concentrations from 33-267 nM at a flow rate of 40 μl/min. The antigen-antibody association kinetics was followed for 5 minutes and the dissociation kinetics was followed for 8 minutes. The association and dissociation curves were fit to a 1:1 Langmuir binding model using BIAevaluation software (Biacore AB). Data corresponding to the initial few dozen seconds for association and dissociation phases alone were considered for curve fitting to minimize the effect of avidity. The experiments were performed at both 25° C. and 37° C.
Take B1: binding was characterised by a dissociation constant (Kd) of 780 pM, the dissociation rate constant (koff) stood at 0.00027 s⁻¹ and the kon came out at 347000 M⁻¹ s⁻¹.
Consider B2, for which the affinity, expressed as Kd, was 340 pM; the dissociation rate constant (koff) turned out to be 3.81e-05 s⁻¹; the association rate constant (kon) was found to be 111000 M⁻¹ s⁻¹.
B3 gave a dissociation constant Kd of 490 pM, a koff of 4.43e-05 s⁻¹ and an association rate constant (kon) of 91000 M⁻¹ s⁻¹.
Consider B5, for which the dissociation constant (Kd) is 16 pM, the off-rate constant (koff) stood at 8e-07 s⁻¹ and the kon was found to be 52700 M⁻¹ s⁻¹.

For another experiment the target is unchanged. The experiment in a line: cell-based or functional assay. This is another data set of the same source.
In the case of B3, the “Expt. 1 IC50: inhibition of MS-CSF induced migration of CXCR3-expressing 300.19 cells, MIG neutralized by anti-MIG” value was 0.562 µg/mL and the “Expt. 2 IC50: inhibition of MS-CSF induced migration of CXCR3-expressing 300.19 cells, MIG neutralized by anti-MIG” value was 0.577 µg/mL.

For a further experiment the target is unchanged. The experiment is described as follows: inhibition of 0.100 nM 125I-IP-10 binding to CXCR3-expressing 300.19 cells. On the procedure: The cells were grown in RPMI media containing 10% FCS and G418 selection. Prior to use, the cells were washed twice with Hank's Balanced Salt Solution (HBSS) at 4° C. and adjusted to 4×10⁷ cells/ml. Glass fiber plates (Millipore MultiScreen®, Cat. #MAFBNOB50) were blocked with 200 μl of a 0.1% polyethyleneimine solution one day prior to the experiment. On the day of the study, the blocking buffer was aspirated by using a Millipore manifold. The plates were washed three times with 200 μl of binding buffer (50 mM HEPES, pH 7.2, 1 mM CaCl₂, 5 mM MgCl₂, 0.5% BSA). […] The plates were incubated on a plate shaker for 60 minutes at room temperature and washed three times with wash buffer (10 mM HEPES, pH 7.2, 0.5 M NaCl, 0.5% BSA) at a volume of 200 μl per wash. The plates were dried, 25 μl of scintillant was added and the plates were counted on a Wallac Microbeta Counter. Data were analyzed using Prism software and a KD was calculated.
Competition assays were run in a similar manner to the experiment described above. […] Lastly, 25 μl of cells at a density of 1×10⁶ cells per well were added and the plates were incubated on a plate shaker for 60 minutes at room temperature, washed and counted as described above. EC₅₀ values were calculated using Prism software. Kᵢ values (in nM) were determined using the formula: […]
For the molecule B4, the affinity corresponds to a Ki of 290 pM.
On the same count and under the same terms, then B1, with 160 pM.
On the same count and under the same terms, for B2 the value was 90 pM.
Same read-out and setting: for B3 the value was 60 pM.
B5 returned an inhibition constant (Ki) of 410 pM.

The target is the same in the next experiment. The experiment is described as follows: SPR (Biacore), extension of dissociation curve, 25 C. On the procedure:
as §3
(§4) The values were determined by extension of the dissociation curves to get to the time required for the 50% reduction of the Y-axis of the dissociation sensogram.
Consider B1, for which the “Half-life (dissociation of half of the antibody-antigen complex)” value (shortened to “Half-life”) came to 1.01 h.
Same read-out and setting: for B2 the value was 9.53 h; for B3, 5.94 h.

The target is the same in a further experiment. The experiment is described as follows: SPR (Biacore), extension of dissociation curve, 37 C. On the procedure:
as §3, §4
As to B1, the “Half-life” value is 0.71 h.
With B2, the “Half-life” value stood at 5.05 h.
On the same count and under the same terms, then B3, with 4.34 h.

Another experiment concerns the target T4, human ITAC (interferon-inducible T cell …). The experiment in a line: SPR (Biacore), antigen on CM5 chip, 25 C. On the procedure: as §2
B1: the binding result is recorded as “no binding (tested: 133 nM)”.
The same measure, in the same setting: for B2 the value was “no binding (tested: 133 nM)”.
For the molecule B3, the binding result is “no binding (tested: 133 nM)”.
B5: the binding result is given as “no binding (tested: 133 nM)”.

In another experiment the target is T5, human IP-10 (interferon gamma inducible …). The experiment is described as follows: SPR (Biacore), human IP-10 on CM5 chip, 25 C. The procedure:
as §3
For B1, the Kd is 810 pM, the koff worked out at 0.00019 s⁻¹ and the kon is 233000 M⁻¹ s⁻¹.
On the same counts, the results for B2 are 530 pM, 2.02e-05 s⁻¹ and 38300 M⁻¹ s⁻¹.
In the case of B3, binding was characterised by a dissociation constant (Kd) of 880 pM, the off-rate (koff) was 3.24e-05 s⁻¹ and the kon was 36800 M⁻¹ s⁻¹.
Molecule B5 came in with a dissociation constant (Kd) of 20 pM, an off-rate constant (koff) of 4e-07 s⁻¹ and an on-rate (kon) of 17000 M⁻¹ s⁻¹.
